The nature of the data set: yeast display, Sf9 membrane polyspecificity reagent, FACS + sequencing; frameworks hold sequencing errors. The procedure, abridged:
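Nanobodies came from a synthetic yeast display library in Saccharomyces cerevisiae BJ5465, induced with galactose for 36–48 hours and stained for 1 hour at 4 °C with 10% biotinylated, detergent-solubilized Sf9 membrane reagent. Cells were enriched on streptavidin microbeads and then FACS-sorted, with low and high (top ~1%) gates set on anti-HA fluorescence for expression and streptavidin fluorescence for reagent binding. Each polyreactivity label reflects the gate a clone came from. Genes were amplified by colony PCR, sequenced by MiSeq 2 × 250 and filtered by CDR length.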
With “QVQLVESGGGLVQAGGSLRLSCAASGSIFGPYAMGWYRQAPGKERELVAAISTRGGRTYYADSVKGRFTISRDNAKNTVYLQMNSLKPEDTAVYYCNARRSDSRSYDYWGQGTQVTVSS”, the “polyreactivity (PSR sort gate)” value is recorded as “high polyreactivity”.

Turning to “QVQLVESGGGLVQAGGSLRLSCAASGSIFGPYAMGWYRQAPGKERELVAVISKRGGSTYYADSVKGRFTISRDNAKNTVYLQMNSLKPEDTAVYYCAADYDWDPYRIYYLASYDYWGQGTQVTVSS”, the “polyreactivity (PSR sort gate)” value is reported as “high polyreactivity”.

On to “QVQLVESGGGLVQAGGSLRLSCAASGSIFGQNAMGWYRQAPGKERELVAAITSGAGITYYADSVKGRFTISRDNAKNTVYLQMNSLKPEDPAVYYCIAVPSWSPSPLFDYWGQGTQVTVSS”, for which the “polyreactivity (PSR sort gate)” value is reported as “low polyreactivity”.

For “QVQLVESGGGLVQAGGSLRLSCAASGSIFGRNALGWSRQAPGKERELVAAIRDSGTSTYYADSVKGRFTISRDNAKNTVYLQMNSLKPEDTAVYYCAASRRPGYTYGYWGQGTQVTVSS”, the “polyreactivity (PSR sort gate)” value is “high polyreactivity”.

Turning to “QVQLVESGGGLVQAGGSLRLSCAASGSIFGRNAMGWYRQAPGKEREFVATITSRGGRTYYADSVKGRFTISRDNAKNTVYLQMNSLKPEYTAVYYCAADTYISTLKKYRLGDYWGQGTQVTVSS”, the “polyreactivity (PSR sort gate)” value was “low polyreactivity”.

Regarding “QVQLVESGGGLVQAGGSLRLSCAASGSIFGRYAMGWYRQAPGKEREFVSAISSSGGRTYYADSVKGRFPISRDNAKNTVYLQMNSLKPEDTAVYYCATEGYYSRTRLYLEYDYWGQGTQVTVSS”, the “polyreactivity (PSR sort gate)” value is listed as “high polyreactivity”.

Take “QVQLVESGGGLVQAGGSLRLSCAASGSIFGRYAMGWYRQAPGKERELVAAISRTGVSTYYADSVKGRFTISRDNAKNTVYLQMKSLKTEDSAVYYCKAVRLSWQYTYYYWGQGTQVTVSS”: the “polyreactivity (PSR sort gate)” value was “high polyreactivity”.

In the case of “QVQLVESGGGLVQAGGSLRLSCAASGSIFGRYAMGWYRQAPGKERELVAAITFSGASTYYADSVKGRFTISRDNAKNTVYLQMNSLKPEDTAVYYCAADGGTIEGDYWGQGTQVTVSS”, the “polyreactivity (PSR sort gate)” value is “low polyreactivity”.

Take “QVQLVESGGGLVQAGGSLRLSCAASGSIFGRYAMGWYRQAPGKERELVAAITGSGGTTYYADSVKGRFTISRDNAKNTVYLQMNSLKPEDTAVYYCAADPQVYYSGRPRYDYWGQGTQVTVSS”: the “polyreactivity (PSR sort gate)” value is “high polyreactivity”.

With “QVQLVESGGGLVQAGGSLRLSCAASGSIFGRYAMGWYRQAPGKERELVAVITSGGSTNYADSVKGRFTISRDKAKNTVYLQMNSLKPEDTAVYYCAVRPYELHRLADQPGGDDYWGQGTQVTVSS”, the “polyreactivity (PSR sort gate)” value is on record as “low polyreactivity”.

Turning to “QVQLVESGGGLVQAGGSLRLSCAASGSIFGRYAMGWYRQAPGNERELVAGICSRGTSTYYADSVKGRFTISRDNAKNTVYLQMNSLKPEDTAVYYCNAYPYYIVGSRYDYWGQGTQVTVSS”, the “polyreactivity (PSR sort gate)” value is “high polyreactivity”.

In the case of “QVQLVESGGGLVQAGGSLRLSCAASGSIFGRYGAMGWYRQAPGKERELVAAIRTSGVSTYYADSVKGRFTISRDNAKNTVYLQMNSLKPEDTAVYYCAKGYNSYNLGKYGYWGQGTQVTVSS”, the “polyreactivity (PSR sort gate)” value is on record as “low polyreactivity”.

For “QVQLVESGGGLVQAGGSLRLSCAASGSIFGRYGMGWYRQAPGKERELVAAITSGTRTNYADSVKGRFTISRDNAKNTVYLQMNSLKPEDTAVYYCNALRLRGNYEYGYWGHGTQVTVSS”, the “polyreactivity (PSR sort gate)” value was “low polyreactivity”.

“QVQLVESGGGLVQAGGSLRLSCAASGSIFGSNAMGWYRQAPGKERELVAAITESGGDTYYADSVKGRFTISRDNAKNTVYLQMNSLKPEDTAVYYCAARYFGVIVDVSLFREYGSWGQGTQVTVSS”: the “polyreactivity (PSR sort gate)” value was “low polyreactivity”.

In the case of “QVQLVESGGGLVQAGGSLRLSCAASGSIFGSYAMGWYRPAPGKERELVAAITIADITYYADSVKGRFTISRDNAKNTVYLQMNSLKPEDTAVYYCAAPYSPLWYPGGDYWRQGTQVTVSS”, the “polyreactivity (PSR sort gate)” value is recorded as “low polyreactivity”.

For the sequence “QVQLVESGGGLVQAGGSLRLSCAASGSIFGSYAMGWYRQAPGKERELVAAITYSGTSTYYADSVKGRFTISRDNAKNTVYLQMNSLKPEDTAVYYCNAVSRHRSKFDYWGQGTQVTVSS”, the “polyreactivity (PSR sort gate)” value was “high polyreactivity”.

Consider “QVQLVESGGGLVQAGGSLRLSCAASGSIFGSYAMGWYRQAPGKERELVAVITSSGNTKYADSVKGRFTISRDNAKNTVYLQMNSLKPEDTAVYYCAARFITWGSQYSFRSMDYWGQGTQVTVSS”, for which the “polyreactivity (PSR sort gate)” value is recorded as “high polyreactivity”.

As for “QVQLVESGGGLVQAGGSLRLSCAASGSIFGSYAMGWYRQGAGKERELVAGITYDGGSTYYADSVKGRFTISRDNAKNTVYLQMNSLKPEDTAVYYCAAVDIRLEWDFWFQPTYEYWGQGTQVTVSS”, the “polyreactivity (PSR sort gate)” value is given as “low polyreactivity”.

Regarding “QVQLVESGGGLVQAGGSLRLSCAASGSIFGTNAMGGYRQAPGKERELVAAIRGSGGRTYYADSVKGRFTISRDKAKNTVYLEMNSLKPEDSAVYYCAAPGNPYCWGYNYYYWGQGTQVTVSS”, the “polyreactivity (PSR sort gate)” value is “high polyreactivity”.

“QVQLVESGGGLVQAGGSLRLSCAASGSIFGTNAMGWYRQAPGKERELVAAIRGSGGRTYYADSVKGRFTISRDNAKNTVYLQMNSLKPEDTAVYYCAARWGPYYGGVRYGYWGQGTQVTVSS”: the “polyreactivity (PSR sort gate)” value was “high polyreactivity”.

Turning to “QVQLVESGGGLVQAGGSLRLSCAASGSIFGTNVMGWYRQAPGKERELVAAITASGSRTYYADSVKGRFTISRDNAKNTVYLQMNSLKPEDTAVYYCATVSRFGFKDFDYWGQGTQVTVSS”, the “polyreactivity (PSR sort gate)” value is listed as “high polyreactivity”.

As for “QVQLVESGGGLVQAGGSLRLSCAASGSIFGTYAKGWYRQAPGKERELVADISLSGGSTYYADSVKGRFTISRDTAKKSVYLQMNSLKPEDNAVYYCNAESTAYGYVAVYRYDYWGQGTQVTVSS”, the “polyreactivity (PSR sort gate)” value is reported as “low polyreactivity”.

With “QVQLVESGGGLVQAGGSLRLSCAASGSIFGTYAMGWYRQAPGKERELVAAITGRDGITYADSVKGRFTISCDNAKNTVYLQMNSLKPEDTAVYYCAAVSHGVYYQYRRRYYSWGQGTQVTVSS”, the “polyreactivity (PSR sort gate)” value is given as “high polyreactivity”.

For “QVQLVESGGGLVQAGGSLRLSCAASGSIFGTYAMGWYRQAPGKERELVAAITGSGGRTYYADSVKGRFTISRDNAKNTVYLQLNSLKPEDTAVYYCNKVVYVRSYPPRYDYWGQGTQVTVSS”, the “polyreactivity (PSR sort gate)” value is listed as “high polyreactivity”.

As to “QVQLVESGGGLVQAGGSLRLSCAASGSIFGTYAMGWYRQAPGKERELVARISGGGSTYYADSVKGRFTISRDNAKNTVYLQMNSLKPEDTAVYYCNVRKWAYCSHAIIYNYWGQGTQVTVSS”, the “polyreactivity (PSR sort gate)” value was “high polyreactivity”.

For “QVQLVESGGGLVQAGGSLRLSCAASGSIFGTYAMGWYRQAPGKEREMVARITSGGSTNYADSVKGRFTISRDNAKNTVFLQMNSLKPEDTAVYYCAARQYHWYLPSYWYRYDYWGQGTLVTVSS”, the “polyreactivity (PSR sort gate)” value is reported as “high polyreactivity”.

In the case of “QVQLVESGGGLVQAGGSLRLSCAASGSIFGVNAMGWYRQAPGKERELVADITKSTGDTYADSVKGRFTISRDNAKNTVYLQMNSLKPEDTAVYYCNARFTVKQKRLYLYDYWGQGTQVTVSS”, the “polyreactivity (PSR sort gate)” value is “low polyreactivity”.

Take “QVQLVESGGGLVQAGGSLRLSCAASGSIFGVNYMGWYRQAPGKERELVAGLSSSGGSTYYADSVKGRFTISRDNAKNTVYLQMNSLKPEDTAVYDCAATQSRYYSDDPYYYWGQGTQVTVSS”: the “polyreactivity (PSR sort gate)” value is given as “low polyreactivity”.

For the sequence “QVQLVESGGGLVQAGGSLRLSCAASGSIFGVYAMGWYRQAPGKERELVAAISWSGTSTYYADSVKGRFTISRDNAKNTVYLQMNSLKPEDTAVYYCNGDWVLDGYDYDSWGQGTQVTVSS”, the “polyreactivity (PSR sort gate)” value was “low polyreactivity”.

Consider “QVQLVESGGGLVQAGGSLRLSCAASGSIFGVYTMGWYRQAPGKERELVAAITRSGGSTYYADSVKGRFTISRDNAKNTVYLQMNSLKPEDTAVYYCAARRAYVWCSQGYAHFEYWGQGTQVTVSS”, for which the “polyreactivity (PSR sort gate)” value is “high polyreactivity”.

On to “QVQLVESGGGLVQAGGSLRLSCAASGSIFGWYAMGWYRQAPGKDWELVAASRRGGSTNYADSVKGRFTISRDNAKNTVYFQMNSLIPEATAVYYCAAGKSGYSKRIFRYSFDYWGQGTQVTVSS”, for which the “polyreactivity (PSR sort gate)” value is “high polyreactivity”.

As to “QVQLVESGGGLVQAGGSLRLSCAASGSIFGWYAMGWYRQAPGKERELVAAIDSATSTYYADSVKGRFTISRDNAKNTVYLQMNSLKPEDTAFYYCAAVQLYQKHQITYVAHEYWGQGTQVTVSS”, the “polyreactivity (PSR sort gate)” value is “low polyreactivity”.

As to “QVQLVESGGGLVQAGGSLRLSCAASGSIFGWYAMGWYRQAPGKERELVATISSGGGNTYYADSVKGRFTISRDNAKNTVYLQMNSLKPEDTAVYYCAADRTFYGIRFDYWGQGTQVTVSS”, the “polyreactivity (PSR sort gate)” value is “low polyreactivity”.

Consider “QVQLVESGGGLVQAGGSLRLSCAASGSIFGWYTMGWYRQAPGKERELVAAITWRGGTTYYADSVKGRFTISRDNAKNTVYLQMNSLKPEDTAVYYCATTRYPRSYQEFGYWGQGTQVTVSS”, for which the “polyreactivity (PSR sort gate)” value was “high polyreactivity”.

For “QVQLVESGGGLVQAGGSLRLSCAASGSIFGYNAMGWYRQAPGKEREFVAAINTSGGSTYYADSVKGSFTISRDNAKNTVYLQMYSLKPEATAVYYCAARAYSWISARYYWGLGTQVTVSS”, the “polyreactivity (PSR sort gate)” value was “high polyreactivity”.

“QVQLVESGGGLVQAGGSLRLSCAASGSIFGYNAMGWYRQAPGKERELVAAISLTTGSTYYADSVKGRFTISRDNAKNTVYLQMNCLKPEDTAVYYCAAVDADYYYWGQGTQVTVSS”: the “polyreactivity (PSR sort gate)” value is “high polyreactivity”.

Take “QVQLVESGGGLVQAGGSLRLSCAASGSIFGYNAMGWYRQAPGKERELVAAITSSGGSTYNADSVKGRFTISRDNAKNTVYLQMNSLKPEDTAFYYCNSRDWYIVWYDYWGQGTQVTVSS”: the “polyreactivity (PSR sort gate)” value is reported as “low polyreactivity”.

Turning to “QVQLVESGGGLVQAGGSLRLSCAASGSIFGYNDMGWYRQAPGKERELVATITWGGGRTRYADSVKGRFTISRDNAKNTVYFQMNSLKPEDTAVYYCAAGYYRLWVRYDYWGQGTQVTVSS”, the “polyreactivity (PSR sort gate)” value is “low polyreactivity”.

Consider “QVQLVESGGGLVQAGGSLRLSCAASGSIFGYNSMGWDRQAAGKERELVAAIYSGGNTYYADSVKGRFTISRDNAKNTVYLQMNSLKPEDTAVYYCAADGYDDSTSRWYEYWGQGSQVTVSS”, for which the “polyreactivity (PSR sort gate)” value is recorded as “low polyreactivity”.

Consider “QVQLVESGGGLVQAGGSLRLSCAASGSIFGYNTMGWYRKAPGKERELVAAISYRGGSTSADSVKGRFSISRDNAKNTVYLQMNSRKPEDTAVYSCATRSIVGYRYSGYDYWGQATQVTVSS”, for which the “polyreactivity (PSR sort gate)” value is “high polyreactivity”.
